Experimental data reported in patent US11504441B2, “Radiolabeled compounds targeting the prostate-specific membrane antigen” (PROVINCIAL HEALTH SERVICES AUTHORITY, priority 2019, dated 2022).

Assay: in vivo
Parameters: species or system mice
Conditions: male, NODSCID 1L2RγKO, mouse, iv, total radioactivity

Structure (SMILES): O=C(O)CCC[C@H](NC(=O)N[C@@H](CCCCNC(=O)[C@H](Cc1c2ccccc2cc2ccccc12)NC(=O)[C@H]1CC[C@H](CNC(=O)CN2CCN(CC(=O)O)CCN(CC(=O)O)CCN(CC(=O)O)CC2)CC1)C(=O)O)C(=O)O [177Lu-HTK03149, metal not drawn]
- tissue uptake at 1 h (Adrenal glands uptake): 0.35 ± 0.07 %ID/g
- tissue uptake at 4 h (Adrenal glands uptake): 0.08 ± 0.01 %ID/g
- tissue uptake at 24 h (Adrenal glands uptake): 0.07 ± 0.02 %ID/g
- tissue uptake at 72 h (Adrenal glands uptake): 0.12 ± 0.05 %ID/g
- tissue uptake at 120 h (Adrenal glands uptake): 0.02 ± 0.03 %ID/g
- tissue uptake at 1 h (Blood uptake): 0.88 ± 0.07 %ID/g
- tissue uptake at 4 h (Blood uptake): 0.17 ± 0.03 %ID/g
- tissue uptake at 24 h (Blood uptake): 0.12 ± 0.01 %ID/g
- tissue uptake at 72 h (Blood uptake): 0.07 ± 0.02 %ID/g
- tissue uptake at 120 h (Blood uptake): 0.02 ± 0.01 %ID/g
- tissue uptake at 1 h (Bone uptake): 0.07 ± 0.02 %ID/g
- tissue uptake at 4 h (Bone uptake): 0.02 ± 0.01 %ID/g
- tissue uptake at 24 h (Bone uptake): 0.03 %ID/g
- tissue uptake at 72 h (Bone uptake): 0.03 ± 0.01 %ID/g
- tissue uptake at 120 h (Bone uptake): 0.01 ± 0.01 %ID/g
- tissue uptake at 1 h (Brain uptake): 0.02 %ID/g
- tissue uptake at 4 h (Brain uptake): 0.01 %ID/g
- tissue uptake at 24 h (Brain uptake): 0.01 %ID/g
- tissue uptake at 1 h (Fat uptake): 0.14 ± 0.05 %ID/g
- tissue uptake at 4 h (Fat uptake): 0.02 %ID/g
- tissue uptake at 24 h (Fat uptake): 0.02 %ID/g
- tissue uptake at 72 h (Fat uptake): 0.04 ± 0.04 %ID/g
- tissue uptake at 120 h (Fat uptake): 0.01 ± 0.01 %ID/g
- tissue uptake at 1 h (Heart uptake): 0.28 ± 0.04 %ID/g
- tissue uptake at 4 h (Heart uptake): 0.07 ± 0.01 %ID/g
- tissue uptake at 24 h (Heart uptake): 0.06 %ID/g
- tissue uptake at 72 h (Heart uptake): 0.06 ± 0.01 %ID/g
- tissue uptake at 120 h (Heart uptake): 0.03 ± 0.01 %ID/g
- tissue uptake at 1 h (Intestine uptake): 0.27 ± 0.06 %ID/g
- tissue uptake at 4 h (Intestine uptake): 0.19 ± 0.07 %ID/g
- tissue uptake at 24 h (Intestine uptake): 0.09 ± 0.05 %ID/g
- tissue uptake at 72 h (Intestine uptake): 0.09 ± 0.03 %ID/g
- tissue uptake at 120 h (Intestine uptake): 0.31 ± 0.48 %ID/g
- tissue uptake at 1 h (Kidneys uptake): 7.67 ± 1.35 %ID/g
- tissue uptake at 4 h (Kidneys uptake): 1.67 ± 0.38 %ID/g
- tissue uptake at 24 h (Kidneys uptake): 0.6 ± 0.11 %ID/g
- tissue uptake at 72 h (Kidneys uptake): 0.68 ± 0.39 %ID/g
- tissue uptake at 120 h (Kidneys uptake): 0.28 ± 0.06 %ID/g
- tissue uptake at 1 h (Lacrimal uptake): 0.02 ± 0.01 %ID/g
- tissue uptake at 4 h (Lacrimal uptake): 0.03 ± 0.01 %ID/g
- tissue uptake at 72 h (Lacrimal uptake): 0.01 ± 0.01 %ID/g
- tissue uptake at 1 h (Liver uptake): 0.26 ± 0.03 %ID/g
- tissue uptake at 4 h (Liver uptake): 0.11 ± 0.01 %ID/g
- tissue uptake at 24 h (Liver uptake): 0.1 ± 0.01 %ID/g
- tissue uptake at 72 h (Liver uptake): 0.13 ± 0.03 %ID/g
- tissue uptake at 120 h (Liver uptake): 0.08 ± 0.04 %ID/g
- tissue uptake at 1 h (Lungs uptake): 0.72 ± 0.06 %ID/g
- tissue uptake at 4 h (Lungs uptake): 0.17 ± 0.01 %ID/g
- tissue uptake at 24 h (Lungs uptake): 0.12 ± 0.01 %ID/g
- tissue uptake at 72 h (Lungs uptake): 0.11 ± 0.02 %ID/g
- tissue uptake at 120 h (Lungs uptake): 0.09 ± 0.08 %ID/g
- tissue uptake at 1 h (Muscle uptake): 0.18 ± 0.14 %ID/g
- tissue uptake at 4 h (Muscle uptake): 0.02 ± 0.01 %ID/g
- tissue uptake at 24 h (Muscle uptake): 0.02 %ID/g
- tissue uptake at 72 h (Muscle uptake): 0.02 %ID/g
- tissue uptake at 120 h (Muscle uptake): 0.01 %ID/g
- tissue uptake at 1 h (Pancreas uptake): 0.17 ± 0.03 %ID/g
- tissue uptake at 4 h (Pancreas uptake): 0.03 %ID/g
- tissue uptake at 24 h (Pancreas uptake): 0.03 %ID/g
- tissue uptake at 72 h (Pancreas uptake): 0.03 %ID/g
- tissue uptake at 120 h (Pancreas uptake): 0.02 ± 0.01 %ID/g
- tissue uptake at 1 h (Salivary uptake): 0.23 ± 0.06 %ID/g
- tissue uptake at 4 h (Salivary uptake): 0.05 ± 0.01 %ID/g
- tissue uptake at 24 h (Salivary uptake): 0.05 ± 0.01 %ID/g
- tissue uptake at 72 h (Salivary uptake): 0.05 ± 0.02 %ID/g
- tissue uptake at 120 h (Salivary uptake): 0.03 ± 0.01 %ID/g
- tissue uptake at 1 h (Seminal uptake): 0.38 ± 0.47 %ID/g
- tissue uptake at 4 h (Seminal uptake): 0.04 ± 0.03 %ID/g
- tissue uptake at 24 h (Seminal uptake): 0.02 %ID/g
- tissue uptake at 72 h (Seminal uptake): 0.03 ± 0.01 %ID/g
- tissue uptake at 120 h (Seminal uptake): 0.01 %ID/g
- tissue uptake at 1 h (Spleen uptake): 0.26 ± 0.05 %ID/g
- tissue uptake at 4 h (Spleen uptake): 0.09 ± 0.02 %ID/g
- tissue uptake at 24 h (Spleen uptake): 0.09 ± 0.01 %ID/g
- tissue uptake at 72 h (Spleen uptake): 0.14 ± 0.06 %ID/g
- tissue uptake at 120 h (Spleen uptake): 0.13 ± 0.08 %ID/g
- tissue uptake at 1 h (Stomach uptake): 0.1 ± 0.02 %ID/g
- tissue uptake at 4 h (Stomach uptake): 0.05 ± 0.02 %ID/g
- tissue uptake at 24 h (Stomach uptake): 0.13 ± 0.11 %ID/g
- tissue uptake at 72 h (Stomach uptake): 0.14 ± 0.1 %ID/g
- tissue uptake at 120 h (Stomach uptake): 0.24 ± 0.31 %ID/g
- tissue uptake at 1 h (Tail uptake): 0.52 ± 0.13 %ID/g
- tissue uptake at 4 h (Tail uptake): 0.2 ± 0.14 %ID/g
- tissue uptake at 24 h (Tail uptake): 0.14 ± 0.14 %ID/g
- tissue uptake at 72 h (Tail uptake): 0.08 ± 0.02 %ID/g
- tissue uptake at 120 h (Tail uptake): 0.04 ± 0.01 %ID/g
- tissue uptake at 1 h (Testes uptake): 0.26 ± 0.02 %ID/g
- tissue uptake at 4 h (Testes uptake): 0.06 %ID/g
- tissue uptake at 24 h (Testes uptake): 0.05 %ID/g
- tissue uptake at 72 h (Testes uptake): 0.05 ± 0.01 %ID/g
- tissue uptake at 120 h (Testes uptake): 0.03 ± 0.01 %ID/g
- tissue uptake at 1 h (Thyroid uptake): 0.27 ± 0.02 %ID/g
- tissue uptake at 4 h (Thyroid uptake): 0.07 ± 0.01 %ID/g
- tissue uptake at 24 h (Thyroid uptake): 0.06 %ID/g
- tissue uptake at 72 h (Thyroid uptake): 0.08 ± 0.01 %ID/g
- tissue uptake at 120 h (Thyroid uptake): 0.04 ± 0.01 %ID/g
- tissue uptake at 1 h (Tumor uptake): 14 ± 2.16 %ID/g
- tissue uptake at 4 h (Tumor uptake): 20.9 ± 2.99 %ID/g
- tissue uptake at 24 h (Tumor uptake): 13.8 ± 2.88 %ID/g
- tissue uptake at 72 h (Tumor uptake): 17.1 ± 4.7 %ID/g
- tissue uptake at 120 h (Tumor uptake): 16.4 ± 11 %ID/g
